Test results reported in the Human Domainome abundance scans (Beltran et al. 2025).
± gives the uncertainty stated by the source.

B1: Endonuclease CUE2, residues 9 to 47; numbered along this chain, P36075 (parent)
chain: HESKLSILMDMFPAISKSKLQVHLLENNNDLDLTIGLLL

Variants of: B1
Experiment: abundance fitness (aPCA) (normalised: wild type 0, dead -1); higher = more abundant; growth selection in yeast, the domain comes from the species named
Settings: Saccharomyces cerevisiae (strain ATCC 204508 / S288c)

Q: For HESKLSILMDMFPAISKSKLCVHLLENNNDLDLTIGLLL [Q21C], which abundance fitness is on record?
A: The abundance fitness was -0.061 ± 0.048.

Q: For HESKLSILMDMFPAISKSKLNVHLLENNNDLDLTIGLLL [Q21N], which abundance fitness is on record?
A: The abundance fitness was 0.807 ± 0.49.

Q: For HESKLSILMDMFPAISKSKLIVHLLENNNDLDLTIGLLL [Q21I], which abundance fitness is on record?
A: Its abundance fitness is 0.155 ± 0.1.

Q: Which abundance fitness does the source give for HESKLSILMDMFPAISKSKLWVHLLENNNDLDLTIGLLL [Q21W] here?
A: Its abundance fitness is -0.423 ± 0.046.

Q: Which abundance fitness does the source give for HESKLSILMDMFPAISKSKLFVHLLENNNDLDLTIGLLL [Q21F] here?
A: The abundance fitness was 0.012 ± 0.16.

Q: With HESKLSILMDMFPAISKSKLTVHLLENNNDLDLTIGLLL [Q21T] as the variant, how does the abundance fitness read?
A: Its abundance fitness is -0.128 ± 0.07.

Q: For HESKLSILMDMFPAISKSKLMVHLLENNNDLDLTIGLLL [Q21M], which abundance fitness is on record?
A: Its abundance fitness is -0.089 ± 0.066.

Q: With HESKLSILMDMFPAISKSKLRVHLLENNNDLDLTIGLLL [Q21R] as the variant, how does the abundance fitness read?
A: The abundance fitness was -0.085 ± 0.034.

Q: With HESKLSILMDMFPAISKSKLDVHLLENNNDLDLTIGLLL [Q21D] as the variant, how does the abundance fitness read?
A: The abundance fitness was -0.119 ± 0.064.

Q: For HESKLSILMDMFPAISKSKLHVHLLENNNDLDLTIGLLL [Q21H], which abundance fitness is on record?
A: Its abundance fitness is -0.124 ± 0.12.

Q: With HESKLSILMDMFPAISKSKLSVHLLENNNDLDLTIGLLL [Q21S] as the variant, how does the abundance fitness read?
A: Its abundance fitness is 0.033 ± 0.049.

Q: With HESKLSILMDMFPAISKSKLLVHLLENNNDLDLTIGLLL [Q21L] as the variant, how does the abundance fitness read?
A: The abundance fitness was -0.24 ± 0.062.

Q: Which abundance fitness does the source give for HESKLSILMDMFPAISKSKLVVHLLENNNDLDLTIGLLL [Q21V] here?
A: Its abundance fitness is -0.118 ± 0.039.

Q: Which abundance fitness does the source give for HESKLSILMDMFPAISKSKLKVHLLENNNDLDLTIGLLL [Q21K] here?
A: The abundance fitness was -0.094 ± 0.047.

Q: Which abundance fitness does the source give for HESKLSILMDMFPAISKSKLPVHLLENNNDLDLTIGLLL [Q21P] here?
A: The abundance fitness was -1.19 ± 0.42.

Q: With HESKLSILMDMFPAISKSKLEVHLLENNNDLDLTIGLLL [Q21E] as the variant, how does the abundance fitness read?
A: The abundance fitness was -0.021 ± 0.054.

Q: With HESKLSILMDMFPAISKSKLGVHLLENNNDLDLTIGLLL [Q21G] as the variant, how does the abundance fitness read?
A: Its abundance fitness is -0.139 ± 0.041.

Q: For HESKLSILMDMFPAISKSKHQVHLLENNNDLDLTIGLLL [L20H], which abundance fitness is on record?
A: Its abundance fitness is -0.559 ± 0.081.

Q: Which abundance fitness does the source give for HESKLSILMDMFPAISKSKIQVHLLENNNDLDLTIGLLL [L20I] here?
A: The abundance fitness was 0.161 ± 0.19.

Q: Which abundance fitness does the source give for HESKLSILMDMFPAISKSKTQVHLLENNNDLDLTIGLLL [L20T] here?
A: Its abundance fitness is -0.702 ± 0.16.

Q: With HESKLSILMDMFPAISKSKQQVHLLENNNDLDLTIGLLL [L20Q] as the variant, how does the abundance fitness read?
A: Its abundance fitness is -0.705 ± 0.19.

Q: Which abundance fitness does the source give for HESKLSILMDMFPAISKSKSQVHLLENNNDLDLTIGLLL [L20S] here?
A: The abundance fitness was -0.656 ± 0.26.

Q: Which abundance fitness does the source give for HESKLSILMDMFPAISKSKKQVHLLENNNDLDLTIGLLL [L20K] here?
A: The abundance fitness was -0.838 ± 0.2.

Q: Which abundance fitness does the source give for HESKLSILMDMFPAISKSKEQVHLLENNNDLDLTIGLLL [L20E] here?
A: Its abundance fitness is -0.748 ± 0.084.

Q: Which abundance fitness does the source give for HESKLSILMDMFPAISKSKVQVHLLENNNDLDLTIGLLL [L20V] here?
A: The abundance fitness was -0.311 ± 0.048.

Q: For HESKLSILMDMFPAISKSKWQVHLLENNNDLDLTIGLLL [L20W], which abundance fitness is on record?
A: Its abundance fitness is -0.613 ± 0.058.

Q: For HESKLSILMDMFPAISKSKCQVHLLENNNDLDLTIGLLL [L20C], which abundance fitness is on record?
A: Its abundance fitness is -0.058 ± 0.12.

Q: Which abundance fitness does the source give for HESKLSILMDMFPAISKSKRQVHLLENNNDLDLTIGLLL [L20R] here?
A: Its abundance fitness is -0.853 ± 0.079.

Q: For HESKLSILMDMFPAISKSKLQVHLSENNNDLDLTIGLLL [L25S], which abundance fitness is on record?
A: The abundance fitness was -0.017 ± 0.047.

Q: Which abundance fitness does the source give for HESKLSILMDMFPAISKSKLQVHLWENNNDLDLTIGLLL [L25W] here?
A: The abundance fitness was -0.065 ± 0.04.

Q: With HESKLSILMDMFPAISKSKLQVHLPENNNDLDLTIGLLL [L25P] as the variant, how does the abundance fitness read?
A: Its abundance fitness is -0.952 ± 0.15.

Q: With HESKLSILMDMFPAISKSKLQVHLTENNNDLDLTIGLLL [L25T] as the variant, how does the abundance fitness read?
A: Its abundance fitness is 0.048 ± 0.047.

Q: Which abundance fitness does the source give for HESKLSILMDMFPAISKSKLQVHLEENNNDLDLTIGLLL [L25E] here?
A: The abundance fitness was 0.041 ± 0.049.

Q: Which abundance fitness does the source give for HESKLSILMDMFPAISKSKLQVHLMENNNDLDLTIGLLL [L25M] here?
A: The abundance fitness was 0.043 ± 0.044.

Q: For HESKLSILMDMFPAISKSKLQVHLDENNNDLDLTIGLLL [L25D], which abundance fitness is on record?
A: The abundance fitness was -0.181 ± 0.19.

Q: With HESKLSILMDMFPAISKSKLQVHLRENNNDLDLTIGLLL [L25R] as the variant, how does the abundance fitness read?
A: Its abundance fitness is 0.045 ± 0.033.

Q: Which abundance fitness does the source give for HESKLSILMDMFPAISKSKLQVHLVENNNDLDLTIGLLL [L25V] here?
A: The abundance fitness was 0.039 ± 0.042.

Q: Which abundance fitness does the source give for HESKLSILMDMFPAISKSKLQVHLQENNNDLDLTIGLLL [L25Q] here?
A: Its abundance fitness is 0.073 ± 0.13.

Q: With HESKLSILMDMFPAISKSKLQVHLNENNNDLDLTIGLLL [L25N] as the variant, how does the abundance fitness read?
A: The abundance fitness was -0.333 ± 0.28.

Q: For HESKLSILMDMFPAISKSKLQVHLAENNNDLDLTIGLLL [L25A], which abundance fitness is on record?
A: The abundance fitness was 0.076 ± 0.037.

Q: Which abundance fitness does the source give for HESKLSILMDMFPAISKSKLQVHLGENNNDLDLTIGLLL [L25G] here?
A: The abundance fitness was 0.001 ± 0.035.

Q: Which abundance fitness does the source give for HESKLSILMDMFPAISKSKLQVHLCENNNDLDLTIGLLL [L25C] here?
A: Its abundance fitness is -0.002 ± 0.074.

Q: Which abundance fitness does the source give for HESKLSILMDMFPAISKSKLQVHLKENNNDLDLTIGLLL [L25K] here?
A: Its abundance fitness is -0.126 ± 0.058.

Q: With HESKLSILMDMFPAISKSKLQMHLLENNNDLDLTIGLLL [V22M] as the variant, how does the abundance fitness read?
A: The abundance fitness was 0.019 ± 0.056.

Q: For HESKLSILMDMFPAISKSKLQPHLLENNNDLDLTIGLLL [V22P], which abundance fitness is on record?
A: Its abundance fitness is -0.464 ± 0.07.

Q: For HESKLSILMDMFPAISKSKLQGHLLENNNDLDLTIGLLL [V22G], which abundance fitness is on record?
A: The abundance fitness was -0.071 ± 0.036.

Q: Which abundance fitness does the source give for HESKLSILMDMFPAISKSKLQAHLLENNNDLDLTIGLLL [V22A] here?
A: Its abundance fitness is -0.001 ± 0.04.

Q: For HESKLSILMDMFPAISKSKLQKHLLENNNDLDLTIGLLL [V22K], which abundance fitness is on record?
A: Its abundance fitness is 0.03 ± 0.045.

Q: For HESKLSILMDMFPAISKSKLQIHLLENNNDLDLTIGLLL [V22I], which abundance fitness is on record?
A: Its abundance fitness is 0.039 ± 0.28.

Q: Which abundance fitness does the source give for HESKLSILMDMFPAISKSKLQSHLLENNNDLDLTIGLLL [V22S] here?
A: The abundance fitness was -0.055 ± 0.051.

Q: Which abundance fitness does the source give for HESKLSILMDMFPAISKSKLQEHLLENNNDLDLTIGLLL [V22E] here?
A: Its abundance fitness is -0.05 ± 0.04.

Q: With HESKLSILMDMFPAISKSKLQRHLLENNNDLDLTIGLLL [V22R] as the variant, how does the abundance fitness read?
A: The abundance fitness was 0.026 ± 0.032.

Q: With HESKLSILMDMFPAISKSKLQLHLLENNNDLDLTIGLLL [V22L] as the variant, how does the abundance fitness read?
A: The abundance fitness was -0.08 ± 0.041.

Q: With HESKLSILMDMFPAISKSKLQWHLLENNNDLDLTIGLLL [V22W] as the variant, how does the abundance fitness read?
A: The abundance fitness was -0.147 ± 0.039.

Q: With HESKLSILMDMFPAISKSKLQCHLLENNNDLDLTIGLLL [V22C] as the variant, how does the abundance fitness read?
A: Its abundance fitness is 0.119 ± 0.082.

Q: For HESKLSILMDMFPAISKSKLQTHLLENNNDLDLTIGLLL [V22T], which abundance fitness is on record?
A: The abundance fitness was -0.006 ± 0.044.

Q: With HESKLSILMDMFPAISKSKLQDHLLENNNDLDLTIGLLL [V22D] as the variant, how does the abundance fitness read?
A: Its abundance fitness is -0.069 ± 0.11.

Q: Which abundance fitness does the source give for HESKLSILMDMFPAISKSKLQVELLENNNDLDLTIGLLL [H23E] here?
A: Its abundance fitness is -0.163 ± 0.062.

Q: Which abundance fitness does the source give for HESKLSILMDMFPAISKSKLQVRLLENNNDLDLTIGLLL [H23R] here?
A: The abundance fitness was -0.124 ± 0.034.

Q: With HESKLSILMDMFPAISKSKLQVLLLENNNDLDLTIGLLL [H23L] as the variant, how does the abundance fitness read?
A: The abundance fitness was -0.139 ± 0.047.

Q: With HESKLSILMDMFPAISKSKLQVWLLENNNDLDLTIGLLL [H23W] as the variant, how does the abundance fitness read?
A: Its abundance fitness is -0.305 ± 0.056.

Q: With HESKLSILMDMFPAISKSKLQVPLLENNNDLDLTIGLLL [H23P] as the variant, how does the abundance fitness read?
A: The abundance fitness was -0.622 ± 0.11.

Q: Which abundance fitness does the source give for HESKLSILMDMFPAISKSKLQVGLLENNNDLDLTIGLLL [H23G] here?
A: The abundance fitness was -0.342 ± 0.036.

Q: For HESKLSILMDMFPAISKSKLQVDLLENNNDLDLTIGLLL [H23D], which abundance fitness is on record?
A: Its abundance fitness is -0.544 ± 0.11.
